Drawing on patent US6677124, this text covers 90% inhibitory concentration, IC50 and Ka for two substances.

By IC50 is commonly meant the concentration needed to halve the response being measured. The low end stands for greater potency in that assay, the high end for weaker potency in that assay.

The target in assay [1] is monoclonal antibody BC203. Description: competitive radioimmunoassay: unlabeled hBNP against 125I-labeled Tyr0-hBNP on BC203 (ascites BC203A diluted 42,000-fold), PEG precipitation.
Assay [2] has as its target human brain natriuretic peptide (hBNP) (human). Description: Scatchard plot from the hBNP standard curve of the radioimmunoassay.

human brain natriuretic peptide (hBNP), sequence (peptide): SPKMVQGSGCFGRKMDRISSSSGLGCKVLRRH
human brain natriuretic peptide (hBNP) (human), sequence (peptide, as listed by the source): as the sequence (peptide) above

In assay [1], human brain natriuretic peptide (hBNP) came in with a 90% inhibitory concentration of 1.3 ng/mL and an IC50 of 0.0118 µg/mL. In assay [2], monoclonal antibody BC203 displayed a Ka of 1.3e+09 M⁻¹.
